Laboratory results from article PMC10776994, “The SDS22:PP1:I3 complex: SDS22 binding to PP1 loosens the active site metal to prime metal exchange” (The Journal of Biological Chemistry, 2023).

What was measured:
Conditions in all cases: both partners purified
[1] = molecular target: T1, SDS22_(56-360):PP1α_(7-330) complex (UniProt Q15435 56-360; P62136 7-330); assay: SPR; His6-PP1 constructs or SDS22_(56-360):PP1α_(7-330) captured on a Ni-NTA chip (NiHC200M), I3 and variants injected; 25 °C; 20 mM Tris pH 8.0, 500 mM NaCl, 0.5 mM TCEP, 0.05% Tween-20; one-to-one one-state or two-state fit
T1 construct: SDS22 (PPP1R7), residues 56-360; Protein phosphatase 1 alpha catalytic subunit (PP1α), residues 7-330; PP1 in this complex lacks the M1 metal; The same complex treated with EDTA (M2 metal extracted) is kept as this molecule and told apart by assay a4; the His6 tag of SDS22 was cleaved, so it is probably His6-PP1; also called SDS22:PP1; SDS22:PP1_(M2-metal-free) / metal-free …
T1 sequence (Q15435 56-360, chain 1 of 2): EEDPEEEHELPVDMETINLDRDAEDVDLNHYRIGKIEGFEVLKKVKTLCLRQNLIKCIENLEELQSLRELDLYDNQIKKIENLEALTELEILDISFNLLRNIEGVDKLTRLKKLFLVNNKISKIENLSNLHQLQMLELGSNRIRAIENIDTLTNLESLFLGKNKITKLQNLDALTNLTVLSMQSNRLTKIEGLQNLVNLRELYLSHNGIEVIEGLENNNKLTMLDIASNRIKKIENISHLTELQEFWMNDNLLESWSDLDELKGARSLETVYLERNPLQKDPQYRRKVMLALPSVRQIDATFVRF
T1 sequence (P62136 7-330, chain 2 of 2): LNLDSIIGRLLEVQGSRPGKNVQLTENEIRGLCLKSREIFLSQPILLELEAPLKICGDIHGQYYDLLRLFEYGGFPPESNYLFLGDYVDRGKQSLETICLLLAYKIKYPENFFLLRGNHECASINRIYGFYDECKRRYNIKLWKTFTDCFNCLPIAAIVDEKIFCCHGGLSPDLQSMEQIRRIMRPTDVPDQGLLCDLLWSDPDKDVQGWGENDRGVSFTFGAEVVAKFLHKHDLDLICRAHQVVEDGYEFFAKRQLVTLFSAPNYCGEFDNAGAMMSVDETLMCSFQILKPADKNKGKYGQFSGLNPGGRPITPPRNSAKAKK

PP1α_(7-330) Y134A/H66K = molecular target: T2, PP1α_(7-330) Y134A/H66K (UniProt P62136 7-330, Y134A | H66K); assay: as above
T2 construct: Protein phosphatase 1 alpha catalytic subunit (PP1α), residues 7-330; also called PP1_(7-330) Y134A/H66K
T2 sequence (P62136 7-330 H66K/Y134A): as the sequence (P62136 7-330, chain 2 of 2) above, with H60K, Y128A counted along it

PP1α_(7-330) Y134A = molecular target: T3, PP1α_(7-330) Y134A (UniProt P62136 7-330, Y134A); assay: as above
T3 construct: Protein phosphatase 1 alpha catalytic subunit (PP1α), residues 7-330; also called PP1_(Y134A); PP1_(7-330) Y134A
T3 sequence (P62136 7-330 Y134A): as the sequence (P62136 7-330, chain 2 of 2) above, with Y128A counted along it

PP1α_(7-330) R96A = molecular target: T4, PP1α_(7-330) R96A (UniProt P62136 7-330, R96A); assay: as above
T4 construct: Protein phosphatase 1 alpha catalytic subunit (PP1α), residues 7-330; also called PP1_(R96A); PP1_(7-330) R96A
T4 sequence (P62136 7-330 R96A): as the sequence (P62136 7-330, chain 2 of 2) above, with R90A counted along it

PP1α_(7-330) R96A/H66K = molecular target: T5, PP1α_(7-330) R96A/H66K (UniProt P62136 7-330, R96A | H66K); assay: as above
T5 construct: Protein phosphatase 1 alpha catalytic subunit (PP1α), residues 7-330; also called PP1_(7-330) R96A/H66K
T5 sequence (P62136 7-330 H66K/R96A): as the sequence (P62136 7-330, chain 2 of 2) above, with H60K, R90A counted along it

[2] = molecular target: T1, SDS22_(56-360):PP1α_(7-330) complex; assay: SPR; as a3, but SDS22_(56-360):PP1α_(7-330) treated with 3 mM EDTA beforehand and dialysed to extract the M2 metal (metal-free PP1); one-state fit

Binder	Kd [1] [nM]	Kd (PP1α_(7-330) Y134A/H66K) [nM]	Kd (PP1α_(7-330) Y134A) [nM]	Kd (PP1α_(7-330) R96A) [nM]	Kd (PP1α_(7-330) R96A/H66K) [nM]	Kd [2] [nM]
SLTIKLRKRKPEKKVEWTSDTVDNEHMGRRSSK (domain or fragment, human, UniProt O60927 27-59, looked up, made by a stop codon in the I3 27-68 construct; lacks the CCC motif; also called I3_(ΔCCC); CCC_(deletion); source: E. coli BL21 (DE3), purified (Ni-NTA, TEV, heat 95 °C, SEC); not shown: His6, N-terminal, cleaved; MBP, N-terminal, cleaved) [I3_(27-59) (Δ60–68)]	396 ± 11	–	–	–	–	–
SLTIKLRKRKPEKKVEWTSDTVDNEHMGRRSSKCCCIYEKPR (domain or fragment, human, UniProt O60927 27-68, looked up, source: E. coli BL21 (DE3), purified (Ni-NTA, TEV, heat 95 °C, SEC); not shown: His6, N-terminal, cleaved; MBP, N-terminal, cleaved) [I3_(27-68)]	116 ± 12	12 ± 3	9 ± 2	12 ± 1	7 ± 1	605 ± 32
SLTIKLRKRKPEKKVEWTSDTVDNEHMGRRSSKSSSIYEKPR (domain or fragment, human, UniProt O60927 27-68, looked up, also called I3_(27-68) SSS; SSS: I3_(27-68) CCC→SSS; source: E. coli BL21 (DE3), purified (Ni-NTA, TEV, heat 95 °C, SEC); not shown: His6, N-terminal, cleaved; MBP, N-terminal, cleaved) [I3_(27-68) C60S/C61S/C62S]	429 ± 30	–	–	–	–	–
